Measured values: paper doi:10.1101/2022.08.17.504273 (bioRxiv, 2022)
Changes are numbered by the printed parent chain.

T1: JIP3 RH1 domain (JIP3 1-108) (mouse, UniProt Q9ESN9-5 1-108)
T1 sequence: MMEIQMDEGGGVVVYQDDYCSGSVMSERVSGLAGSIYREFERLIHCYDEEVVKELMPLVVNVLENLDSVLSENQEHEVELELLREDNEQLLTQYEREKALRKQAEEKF

T2: mouse JIP3^185–505 (JIP3 186-505) (mouse, UniProt Q9ESN9-5 186-505)
T2 sequence: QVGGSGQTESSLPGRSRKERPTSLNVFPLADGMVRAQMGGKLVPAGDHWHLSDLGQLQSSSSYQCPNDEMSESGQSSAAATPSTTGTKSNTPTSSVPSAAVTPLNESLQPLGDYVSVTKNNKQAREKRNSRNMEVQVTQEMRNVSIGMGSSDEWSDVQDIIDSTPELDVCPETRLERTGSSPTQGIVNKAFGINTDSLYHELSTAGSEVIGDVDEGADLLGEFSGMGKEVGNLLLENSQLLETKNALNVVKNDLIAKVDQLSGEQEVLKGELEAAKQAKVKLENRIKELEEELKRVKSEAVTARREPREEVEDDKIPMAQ

T3: mouse JIP3 186-505_L383A/E386A (mouse, UniProt Q9ESN9-5 186-505, L383A | E386A)
T3 sequence: T2 sequence with L198A, E201A

B1: MBP-DIC-N (dynein intermediate chain 1-76) (domain or fragment)
chain: MSDKSELKAELERKKQRLAQIREEKKRKEEERKKKETDQKKEAVAPVQEESDLEKKRREAEALLQSMGLTPESPIV
B2: LIS1 (full length human) (natural protein)
chain: MVLSQRQRDELNRAIADYLRSNGYEEAYSVFKKEAELDVNEELDKKYAGLLEKKWTSVIRLQKKVMELESKLNEAKEEFTSGGPLGQKRDPKEWIPRPPEKYALSGHRSPVTRVIFHPVFSVMVSASEDATIKVWDYETGDFERTLKGHTDSVQDISFDHSGKLLASCSADMTIKLWDFQGFECIRTMHGHDHNVSSVAIMPNGDHIVSASRDKTIKMWEVQTGYCVKTFTGHREWVRMVRPNQDGTLIASCSNDQTVRVWVVATKECKAELREHEHVVECISWAPESSYSSISEATGSETKKSGKPGPFLLSGSRDKTIKMWDVSTGMCLMTLVGHDNWVRGVLFHSGGKFILSCADDKTLRVWDYKNKRCMKTLNAHEHFVTSLDFHKTAPYVVTGSVDQTVKVWECR
B3: JIP3^1–560 (domain or fragment)
chain: MMEIQMDEGGGVVVYQDDYCSGSVMSERVSGLAGSIYREFERLIHCYDEEVVKELMPLVVNVLENLDSVLSENQEHEVELELLREDNEQLLTQYEREKALRRQAEEKFIEFEDALEQEKKELQIQVEHYEFQTRQLELKAKNYADQISRLEERESEMKKEYNALHQRHTEMIQTYVEHIERSKMQQVGGNSQTESSLPGRRKERPTSLNVFPLADGTVRAQIGGKLVPAGDHWHLSDLGQLQSSSSYQCPQDEMSESGQSSAAATPSTTGTKSNTPTSSVPSAAVTPLNESLQPLGDYGVGSKNSKRAREKRDSRNMEVQVTQEMRNVSIGMGSSDEWSDVQDIIDSTPELDMCPETRLDRTGSSPTQGIVNKAFGINTDSLYHELSTAGSEVIGDVDEGADLLGEFSVRDDFFGMGKEVGNLLLENSQLLETKNALNVVKNDLIAKVDQLSGEQEVLRGELEAAKQAKVKLENRIKELEEELKRVKSEAIIARREPKEEAEDVSSYLCTESDKIPMAQRRRFTRVEMARVLMERNQYKERLMELQEAVRWTEMIRASRE
B4: dynein light intermediate chain (natural protein)
chain: MAPVGVEKKLLLGPNGPAVAAAGDLTSEEEEGQSLWSSILSEVSTRARSKLPSGKNILVFGEDGSGKTTLMTKLQGAEHGKKGRGLEYLYLSVHDEDRDDHTRCNVWILDGDLYHKGLLKFAVSAESLPETLVIFVADMSRPWTVMESLQKWASVLREHIDKMKIPPEKMRELERKFVKDFQDYMEPEEGCQGSPQRRGPLTSGSDEENVALPLGDNVLTHNLGIPVLVVCTKCDAVSVLEKEHDYRDEHLDFIQSHLRRFCLQYGAALIYTSVKEEKNLDLLYKYIVHKTYGFHFTTPALVVEKDAVFIPAGWDNEKKIAILHENFTTVKPEDAYEDFIVKPPVRKLVHDKELAAEDEQVFLMKQQSLLAKQPATPTRASESPARGPSGSPRTQGRGGPASVPSSSPGTSVKKPDPNIKNNAASEGVLASFFNSLLSKKTGSPGSPGAGGVQSTAKKSGQKTVLSNVQEELDRMTRKPDSMVTNSSTENEA
B5: JIP3^1–185 (domain or fragment)
chain: MMEIQMDEGGGVVVYQDDYCSGSVMSERVSGLAGSIYREFERLIHCYDEEVVKELMPLVVNVLENLDSVLSENQEHEVELELLREDNEQLLTQYEREKALRKQAEEKFIEFEDALEQEKKELQIQVEHYEFQTRQLELKAKNYADQISRLEERESEMKKEYNALHQRHTEMIQTYVEHIERSKMQ
B6: human Arf6 (12-175_Q67L) (domain or fragment)
chain: KEMRILMLGLDAAGKTTILYKLKLGQSVTTIPTVGFNVETVTYKNVKFNVWDVGGLDKIRPLWRHYYTGTQGLIFVVDCADRDRIDEARQELHRIINDREMRDAIILIFANKQDLPDAMKPHEIQEKLGLTRIRDRNWYVQPSCATSGDGLYEGLTWLTSNYKS
B7: GCN4-WD40-SNAP (other)
chain: GSGSVKQLEDKVEELLSKNAHLENEVARLKKLVSGGPLGQKRDPKEWIPRPPEKYALSGHRSPVTRVIFHPVFSVMVSASEDATIKVWDYETGDFERTLKGHTDSVQDISFDHSGKLLASCSADMTIKLWDFQGFECIRTMHGHDHNVSSVAIMPNGDHIVSASRDKTIKMWEVQTGYCVKTFTGHREWVRMVRPNQDGTLIASCSNDQTVRVWVVATKECKAELREHEHVVECISWAPESSYSSISEATGSETKKSGKPGPFLLSGSRDKTIKMWDVSTGMCLMTLVGHDNWVRGVLFHSGGKFILSCADDKTLRVWDYKNKRCMKTLNAHEHFVTSLDFHKTAPYVVTGSVDQTVKVWECR
B8: LIS1^mut (natural protein)
chain: MVASQEARDELNRAIADYLRSNGYEEAYSVFKKEAELDVNEELDKEYAGLLEEEWAAVAELAEEVMELRSKLNEAKEEFTSGGPLGQKRDPKEWIPRPPEKYALSGHRSPVTRVIFHPVFSVMVSASEDATIKVWDYETGDFERTLKGHTDSVQDISFDHSGKLLASCSADMTIKLWDFQGFECIRTMHGHDHNVSSVAIMPNGDHIVSASRDKTIKMWEVQTGYCVKTFTGHREWVRMVRPNQDGTLIASCSNDQTVRVWVVATKECKAELREHEHVVECISWAPESSYSSISEATGSETKKSGKPGPFLLSGSRDKTIKMWDVSTGMCLMTLVGHDNWVRGVLFHSGGKFILSCADDKTLRVWDYKNKRCMKTLNAHEHFVTSLDFHKTAPYVVTGSVDQTVKVWECR
B9: GST-CC1B (GST-Psc-DCTN1(residues 350-547)-GFP-6xHis) (domain or fragment)
chain: GSDGAASSYQLKQLEEQNARLKDALVRMRDLSSSEKQEHVKLQKLMEKKNQELEVVRQQRERLQEELSQAESTIDELKEQVDAALGAEEMVEMLTDRNLNLEEKVRELRETVGDLEAMNEMNDELQENARETELELREQLDMAGARVREAQKRVEAAQETVADYQQTIKKYRQLTAHLQDVNRELTNQQEASVERQQQ
B10: LIS1-N (residues 1-90) (domain or fragment)
chain: MVLSQRQRDELNRAIADYLRSNGYEEAYSVFKKEAELDVNEELDKKYAGLLEKKWTSVIRLQKKVMELESKLNEAKEEFTSGGPLGQKRD

What was measured:
[1] = target: T1, JIP3 RH1 domain (JIP3 1-108); test: pull-down
[2] = target: B9; test: pull-down
[3] = target: GST-CC1A/B (GST-Psc-DCTN1(residues 214-547)-GFP-6xHis) (human (by the printed UniProt entry), UniProt Q14203-1 214-547); test: pull-down
cryo-EM structure = target: the molecule itself; test: cryo-EM structure
[4] = target: dynactin pointed end complex (ZZ-TEV-Arp11, p62, p25, p27) (human, UniProt Q9NZ32;Q9UJW0-1;Q9BTE1;O00399); test: SEC
JIP3^1–560 = target: B3; test: cryo-EM structure
[5] = target: B4; test: cryo-EM structure
[6] = target: T2, mouse JIP3^185–505 (JIP3 186-505); test: pull-down
[7] = target: T3, mouse JIP3 186-505_L383A/E386A; test: pull-down
SEC-MALS = target: the molecule itself; test: SEC-MALS
LIS1 (full length human) = target: B2; test: pull-down

Chain of dynactin pointed end complex (ZZ-TEV-Arp11, p62, p25, p27) (Q9NZ32 whole entry, chain 1 of 4): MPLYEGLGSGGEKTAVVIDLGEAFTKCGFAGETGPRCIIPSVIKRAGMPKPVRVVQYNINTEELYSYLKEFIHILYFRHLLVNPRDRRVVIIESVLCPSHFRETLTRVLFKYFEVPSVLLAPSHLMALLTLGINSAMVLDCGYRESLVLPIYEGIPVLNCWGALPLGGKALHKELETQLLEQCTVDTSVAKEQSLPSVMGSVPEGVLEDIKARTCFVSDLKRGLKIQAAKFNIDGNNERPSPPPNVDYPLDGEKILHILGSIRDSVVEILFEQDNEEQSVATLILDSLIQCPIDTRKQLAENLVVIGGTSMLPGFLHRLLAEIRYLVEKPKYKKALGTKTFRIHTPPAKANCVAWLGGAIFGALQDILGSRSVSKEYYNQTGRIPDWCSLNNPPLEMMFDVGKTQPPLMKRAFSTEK
Chain of dynactin pointed end complex (ZZ-TEV-Arp11, p62, p25, p27) (Q9UJW0 whole entry, chain 2 of 4): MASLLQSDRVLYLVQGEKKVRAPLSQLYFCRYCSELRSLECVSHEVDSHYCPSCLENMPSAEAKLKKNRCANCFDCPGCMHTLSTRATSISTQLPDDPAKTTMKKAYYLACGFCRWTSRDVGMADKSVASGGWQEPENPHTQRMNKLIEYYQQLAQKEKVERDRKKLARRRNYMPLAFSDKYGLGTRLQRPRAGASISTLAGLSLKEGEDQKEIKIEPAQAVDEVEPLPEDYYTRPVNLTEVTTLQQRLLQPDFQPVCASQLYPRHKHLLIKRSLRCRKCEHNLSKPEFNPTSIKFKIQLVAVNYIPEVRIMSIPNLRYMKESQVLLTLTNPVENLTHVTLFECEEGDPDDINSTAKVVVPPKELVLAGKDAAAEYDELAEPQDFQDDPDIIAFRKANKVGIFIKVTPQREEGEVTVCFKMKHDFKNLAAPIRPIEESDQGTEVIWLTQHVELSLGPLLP
Chain of dynactin pointed end complex (ZZ-TEV-Arp11, p62, p25, p27) (Q9BTE1 whole entry, chain 3 of 4): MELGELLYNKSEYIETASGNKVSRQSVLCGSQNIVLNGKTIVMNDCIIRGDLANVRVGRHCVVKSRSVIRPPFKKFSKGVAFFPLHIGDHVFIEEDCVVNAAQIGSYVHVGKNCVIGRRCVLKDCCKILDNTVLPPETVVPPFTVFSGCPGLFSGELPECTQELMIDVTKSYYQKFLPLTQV
Chain of dynactin pointed end complex (ZZ-TEV-Arp11, p62, p25, p27) (O00399 whole entry, chain 4 of 4): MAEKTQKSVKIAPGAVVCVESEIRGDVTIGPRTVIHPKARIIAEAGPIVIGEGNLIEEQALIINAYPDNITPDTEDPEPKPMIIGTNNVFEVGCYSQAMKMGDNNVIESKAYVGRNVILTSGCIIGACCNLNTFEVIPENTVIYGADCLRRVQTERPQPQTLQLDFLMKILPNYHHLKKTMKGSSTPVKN

Q: Does SVQEKKKSTIWQFFSRLFSSSSS (domain or fragment) [GST-JIP3^563–585 (JIP3^helix construct)] bind [1]?
A: Result: binds

Q: What does the source list for B1?
A: binding result [2]: binds; binding result [3]: binds

Q: Does B2 bind (cryo-EM structure)?
A: Result: binds

Q: Does B3 bind [4]?
A: Result: binds

Q: Does B4 bind (JIP3^1–560)?
A: Result: binds

Q: Does B5 bind [5]?
A: Result: binds

Q: Which results are given for B6?
A: binding result [6]: binds; binding result [7]: binds

Q: How did the “stoichiometry N” value (SEC-MALS) turn out when B7 was run?
A: Its value is 2.

Q: B8 was tested. Which “stoichiometry N” value (SEC-MALS) did it give?
A: Its value is 2.

Q: Does B9 bind (LIS1 (full length human))?
A: Result: binds

Q: Does B10 bind [2]?
A: Result: binds
